Experimental data from patent US20250262210A1 (TRUSTEES OF COLUMBIA UNIVERSITY IN THE CITY OF NEW YORK, published 2025).

Columns and labels:
Assay in all cases: IP/MS, LZTR1 R810W-FLAG, U87
[1] = biological target: PAPPA (human, UniProt Q13219 82-1627)
In short: (§1)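 Gel slices were reduced with 5 mM DTT, alkylated with 11 mM IAA and digested overnight at 37° C. with trypsin. Peptides were analysed on an Orbitrap Fusion Tribrid by LC-MS/MS.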

[2] = biological target: T1, SNX14 (human, UniProt Q9Y5W7 1-946, limits assumed)
T1 sequence (looked up): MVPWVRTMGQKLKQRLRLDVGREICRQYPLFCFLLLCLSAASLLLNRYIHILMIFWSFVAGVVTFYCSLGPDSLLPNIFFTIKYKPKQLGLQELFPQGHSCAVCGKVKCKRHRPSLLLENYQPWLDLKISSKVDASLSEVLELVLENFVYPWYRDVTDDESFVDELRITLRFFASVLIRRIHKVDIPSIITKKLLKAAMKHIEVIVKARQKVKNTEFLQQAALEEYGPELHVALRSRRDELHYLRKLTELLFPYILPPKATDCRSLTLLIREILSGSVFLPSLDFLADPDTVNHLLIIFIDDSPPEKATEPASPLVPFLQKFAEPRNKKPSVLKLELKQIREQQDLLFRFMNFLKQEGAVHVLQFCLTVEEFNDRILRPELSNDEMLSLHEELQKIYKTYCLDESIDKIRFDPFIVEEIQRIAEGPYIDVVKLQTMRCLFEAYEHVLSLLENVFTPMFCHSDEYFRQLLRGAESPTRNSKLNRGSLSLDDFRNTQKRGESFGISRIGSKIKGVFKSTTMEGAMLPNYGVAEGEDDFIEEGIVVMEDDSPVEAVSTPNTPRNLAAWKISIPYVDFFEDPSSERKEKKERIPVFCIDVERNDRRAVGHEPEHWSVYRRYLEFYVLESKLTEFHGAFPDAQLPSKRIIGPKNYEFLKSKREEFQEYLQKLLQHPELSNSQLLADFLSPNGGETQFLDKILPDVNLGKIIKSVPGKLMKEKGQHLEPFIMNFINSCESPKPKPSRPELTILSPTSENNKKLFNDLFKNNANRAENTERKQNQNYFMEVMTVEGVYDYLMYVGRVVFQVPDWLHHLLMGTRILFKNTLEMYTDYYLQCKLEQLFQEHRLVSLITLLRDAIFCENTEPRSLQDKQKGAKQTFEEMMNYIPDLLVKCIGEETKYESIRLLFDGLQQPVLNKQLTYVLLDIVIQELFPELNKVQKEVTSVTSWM
In short: as §1

[3] = biological target: PARP14 (human, UniProt Q460N5 1-1801, limits assumed)
Chain of PARP14 (Q460N5 whole entry): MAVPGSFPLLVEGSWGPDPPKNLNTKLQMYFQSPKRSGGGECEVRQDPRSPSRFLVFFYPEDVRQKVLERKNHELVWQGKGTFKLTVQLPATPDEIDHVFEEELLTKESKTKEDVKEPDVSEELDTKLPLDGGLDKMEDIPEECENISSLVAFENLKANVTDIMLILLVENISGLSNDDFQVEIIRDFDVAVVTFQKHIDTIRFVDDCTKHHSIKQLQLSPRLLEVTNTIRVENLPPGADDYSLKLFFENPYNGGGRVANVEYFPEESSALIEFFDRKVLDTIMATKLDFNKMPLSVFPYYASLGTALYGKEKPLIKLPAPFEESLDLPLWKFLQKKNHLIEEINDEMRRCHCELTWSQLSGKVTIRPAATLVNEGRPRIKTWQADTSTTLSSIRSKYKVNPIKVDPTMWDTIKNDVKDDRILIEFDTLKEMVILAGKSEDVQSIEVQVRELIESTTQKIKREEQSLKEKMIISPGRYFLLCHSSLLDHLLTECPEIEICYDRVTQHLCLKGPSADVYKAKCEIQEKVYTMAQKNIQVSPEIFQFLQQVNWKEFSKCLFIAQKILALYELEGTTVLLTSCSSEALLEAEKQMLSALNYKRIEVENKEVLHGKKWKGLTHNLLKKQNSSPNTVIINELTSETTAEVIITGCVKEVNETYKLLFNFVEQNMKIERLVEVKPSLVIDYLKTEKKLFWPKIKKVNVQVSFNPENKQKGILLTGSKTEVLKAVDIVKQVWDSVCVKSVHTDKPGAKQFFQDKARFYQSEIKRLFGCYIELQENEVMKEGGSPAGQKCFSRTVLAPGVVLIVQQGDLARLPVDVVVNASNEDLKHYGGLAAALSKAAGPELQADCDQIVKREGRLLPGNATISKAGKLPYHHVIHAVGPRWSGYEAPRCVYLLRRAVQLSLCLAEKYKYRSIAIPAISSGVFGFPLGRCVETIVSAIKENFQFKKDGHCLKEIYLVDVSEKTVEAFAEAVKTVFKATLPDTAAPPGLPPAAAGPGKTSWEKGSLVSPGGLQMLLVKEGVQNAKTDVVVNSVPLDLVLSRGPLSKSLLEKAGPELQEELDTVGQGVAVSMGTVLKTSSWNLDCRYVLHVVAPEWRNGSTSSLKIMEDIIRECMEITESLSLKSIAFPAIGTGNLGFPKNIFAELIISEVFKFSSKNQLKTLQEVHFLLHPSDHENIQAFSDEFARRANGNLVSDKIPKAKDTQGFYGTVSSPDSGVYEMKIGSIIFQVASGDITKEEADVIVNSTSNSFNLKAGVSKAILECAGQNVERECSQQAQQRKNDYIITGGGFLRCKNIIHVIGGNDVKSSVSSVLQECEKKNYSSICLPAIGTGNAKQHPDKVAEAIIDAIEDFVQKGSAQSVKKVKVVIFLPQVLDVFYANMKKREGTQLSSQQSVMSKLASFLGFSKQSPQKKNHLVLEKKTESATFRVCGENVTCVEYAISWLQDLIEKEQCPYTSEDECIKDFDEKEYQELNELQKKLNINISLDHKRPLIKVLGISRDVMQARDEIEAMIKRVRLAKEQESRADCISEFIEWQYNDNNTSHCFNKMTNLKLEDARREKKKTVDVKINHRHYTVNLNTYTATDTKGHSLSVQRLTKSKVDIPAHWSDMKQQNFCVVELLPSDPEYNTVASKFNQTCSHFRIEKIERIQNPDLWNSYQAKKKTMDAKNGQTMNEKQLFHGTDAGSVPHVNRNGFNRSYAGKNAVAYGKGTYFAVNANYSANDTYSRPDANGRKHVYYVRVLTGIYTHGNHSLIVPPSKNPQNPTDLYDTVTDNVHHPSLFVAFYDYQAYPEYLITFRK
In short: as §1

[4] = biological target: T2, MOCOS (human, UniProt Q96EN8 1-888)
T2 sequence (looked up): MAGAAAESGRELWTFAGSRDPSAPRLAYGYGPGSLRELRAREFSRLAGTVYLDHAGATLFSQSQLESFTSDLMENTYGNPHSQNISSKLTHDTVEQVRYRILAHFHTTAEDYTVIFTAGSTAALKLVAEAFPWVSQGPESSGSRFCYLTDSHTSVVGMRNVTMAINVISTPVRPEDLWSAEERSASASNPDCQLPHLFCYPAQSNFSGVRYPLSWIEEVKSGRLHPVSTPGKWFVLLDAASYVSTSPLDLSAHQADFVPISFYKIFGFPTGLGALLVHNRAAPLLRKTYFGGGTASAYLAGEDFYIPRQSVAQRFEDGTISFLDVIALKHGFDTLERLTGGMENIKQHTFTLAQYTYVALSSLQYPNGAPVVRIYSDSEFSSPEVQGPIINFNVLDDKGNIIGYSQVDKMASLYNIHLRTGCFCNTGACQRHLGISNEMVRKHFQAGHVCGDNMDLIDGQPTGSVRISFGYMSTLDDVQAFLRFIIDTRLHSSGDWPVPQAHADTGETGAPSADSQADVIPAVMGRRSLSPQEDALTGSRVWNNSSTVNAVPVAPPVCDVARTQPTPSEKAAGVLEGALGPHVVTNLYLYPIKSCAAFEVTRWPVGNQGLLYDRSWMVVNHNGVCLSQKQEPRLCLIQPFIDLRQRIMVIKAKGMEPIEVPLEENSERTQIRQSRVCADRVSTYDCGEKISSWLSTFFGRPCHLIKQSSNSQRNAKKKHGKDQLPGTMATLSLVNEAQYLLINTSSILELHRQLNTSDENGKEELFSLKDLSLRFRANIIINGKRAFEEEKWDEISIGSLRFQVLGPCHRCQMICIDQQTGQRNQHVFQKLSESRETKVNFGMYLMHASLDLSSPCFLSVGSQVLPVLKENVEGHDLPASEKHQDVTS
In short: as §1

Measured: binding result

Chain of PAPPA (Q13219 82-1627 limits assumed): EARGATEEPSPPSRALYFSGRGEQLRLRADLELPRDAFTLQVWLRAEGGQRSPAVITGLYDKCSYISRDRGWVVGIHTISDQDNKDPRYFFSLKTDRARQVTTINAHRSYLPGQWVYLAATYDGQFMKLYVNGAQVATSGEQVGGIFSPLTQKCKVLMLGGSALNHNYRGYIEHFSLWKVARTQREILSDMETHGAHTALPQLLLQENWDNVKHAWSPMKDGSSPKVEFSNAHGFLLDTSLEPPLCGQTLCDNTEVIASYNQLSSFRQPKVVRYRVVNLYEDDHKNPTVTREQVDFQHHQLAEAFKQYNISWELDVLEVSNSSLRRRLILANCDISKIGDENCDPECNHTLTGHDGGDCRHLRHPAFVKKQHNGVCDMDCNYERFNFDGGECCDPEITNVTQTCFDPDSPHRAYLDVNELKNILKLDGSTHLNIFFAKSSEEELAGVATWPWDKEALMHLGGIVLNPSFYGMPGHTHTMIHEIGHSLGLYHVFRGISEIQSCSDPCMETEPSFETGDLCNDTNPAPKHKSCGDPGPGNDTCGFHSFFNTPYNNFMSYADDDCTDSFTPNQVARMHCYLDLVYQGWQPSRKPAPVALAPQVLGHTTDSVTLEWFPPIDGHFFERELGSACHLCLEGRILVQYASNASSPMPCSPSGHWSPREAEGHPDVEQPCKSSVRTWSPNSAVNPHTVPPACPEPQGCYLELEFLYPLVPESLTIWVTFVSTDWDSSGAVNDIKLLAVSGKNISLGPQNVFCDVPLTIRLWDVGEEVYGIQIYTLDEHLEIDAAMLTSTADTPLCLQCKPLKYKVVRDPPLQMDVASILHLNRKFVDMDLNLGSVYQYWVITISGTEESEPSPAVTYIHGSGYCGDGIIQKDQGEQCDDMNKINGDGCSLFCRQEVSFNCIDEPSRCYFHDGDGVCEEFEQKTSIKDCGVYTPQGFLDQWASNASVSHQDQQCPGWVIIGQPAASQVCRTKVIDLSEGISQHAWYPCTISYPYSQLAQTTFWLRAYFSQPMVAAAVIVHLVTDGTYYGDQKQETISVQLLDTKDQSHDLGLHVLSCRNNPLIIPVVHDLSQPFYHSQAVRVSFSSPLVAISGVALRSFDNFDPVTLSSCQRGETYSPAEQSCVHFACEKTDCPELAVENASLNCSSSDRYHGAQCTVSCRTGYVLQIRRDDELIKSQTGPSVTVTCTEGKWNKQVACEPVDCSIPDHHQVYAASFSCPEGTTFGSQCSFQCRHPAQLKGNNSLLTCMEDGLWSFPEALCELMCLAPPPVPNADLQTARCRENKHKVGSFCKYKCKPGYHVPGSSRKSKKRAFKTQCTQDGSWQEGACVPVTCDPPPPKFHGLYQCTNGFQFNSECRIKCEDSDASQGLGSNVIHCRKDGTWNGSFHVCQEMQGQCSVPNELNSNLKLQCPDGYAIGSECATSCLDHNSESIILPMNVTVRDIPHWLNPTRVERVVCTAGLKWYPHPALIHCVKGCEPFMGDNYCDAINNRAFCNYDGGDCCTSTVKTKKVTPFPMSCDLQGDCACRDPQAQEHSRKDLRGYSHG

B1: LZTR1 R810W-FLAG (other, human, UniProt Q8N653 1-840, looked up)
chain: MAGPGSTGGQIGAAALAGGARSKVAPSVDFDHSCSDSVEYLTLNFGPFETVHRWRRLPPCDEFVGARRSKHTVVAYKDAIYVFGGDNGKTMLNDLLRFDVKDCSWCRAFTTGTPPAPRYHHSAVVYGSSMFVFGGYTGDIYSNSNLKNKNDLFEYKFATGQWTEWKIEGRLPVARSAHGATVYSDKLWIFAGYDGNARLNDMWTIGLQDRELTCWEEVAQSGEIPPSCCNFPVAVCRDKMFVFSGQSGAKITNNLFQFEFKDKTWTRIPTEHLLRGSPPPPQRRYGHTMVAFDRHLYVFGGAADNTLPNELHCYDVDFQTWEVVQPSSDSEVGGAEVPERACASEEVPTLTYEERVGFKKSRDVFGLDFGTTSAKQPTQPASELPSGRLFHAAAVISDAMYIFGGTVDNNIRSGEMYRFQFSCYPKCTLHEDYGRLWESRQFCDVEFVLGEKEECVQGHVAIVTARSRWLRRKITQARERLAQKLEQEAAPVPREAPGVAAGGARPPLLHVAIREAEARPFEVLMQFLYTDKIKYPRKGHVEDVLLIMDVYKLALSFQLCRLEQLCRQYIEASVDLQNVLVVCESAARLQLSQLKEHCLNFVVKESHFNQVIMMKEFERLSSPLIVEIVRRKQQPPPRTPLDQPVDIGTSLIQDMKAYLEGAGAEFCDITLLLDGHPRPAHKAILAARSSYFEAMFRSFMPEDGQVNISIGEMVPSRQAFESMLRYIYYGEVNMPPEDSLYLFAAPYYYGFYNNRLQAYCKQNLEMNVTVQNVLQILEAADKTQALDMKRHCLHIIVHQFTKVSKLPTLWSLSQQLLLDIIDSLASHISDKQCAELGADI
notes: Stably expressed in U87 cells by lentivirus; also called LZTR1-FLAG-R810W; LZTR1 RW; not shown: FLAG tag
binds: all assays above
